Experimental findings from IntAct's records for PubMed 21247419 are described below.

Sequences and labels used below:
B1: Dexamethasone-induced Ras-related protein 1 (Mus musculus), O35626 (parent)
chain: MKLAAMIKKMCPSDSELSIPAKNCYRMVILGSSKVGKTAIVSRFLTGRFEDAYTPTIEDFHRKFYSIRGEVYQLDILDTSGNHPFPAMRRLSILTGDVFILVFSLDNRDSFEEVQRLKQQILDTKSCLKNKTKENVDVPLVICGNKGDRDFYREVEQREIEQLVGDDPQRCAYFEISAKKNSSLDQMFRALFAMAKLPSEMSPDLHRKVSVQYCDVLHKKALRNKKLLRAGSGGGGDHGDAFGILAPFARRPSVHSDLMYIREKTSVGSQAKDKERCVIS
partner: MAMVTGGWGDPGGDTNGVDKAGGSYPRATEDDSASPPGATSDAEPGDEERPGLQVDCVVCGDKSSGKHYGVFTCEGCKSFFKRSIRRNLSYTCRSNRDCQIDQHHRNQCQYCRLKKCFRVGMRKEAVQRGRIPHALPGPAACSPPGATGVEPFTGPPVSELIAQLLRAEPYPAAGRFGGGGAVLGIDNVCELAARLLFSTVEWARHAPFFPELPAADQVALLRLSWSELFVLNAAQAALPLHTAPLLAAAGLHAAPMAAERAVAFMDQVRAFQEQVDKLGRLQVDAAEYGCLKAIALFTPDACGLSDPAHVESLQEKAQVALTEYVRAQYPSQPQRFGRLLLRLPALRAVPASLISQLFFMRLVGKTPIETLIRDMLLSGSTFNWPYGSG

Variants of B1 are the subject of this experiment. Particulars: with nr2f6_mouse Nr2f6, P43136.
Consider K34N, for which the “effect of a mutation on the interaction” value was “decreasing interaction”.

In the case of G81A, the “effect of a mutation on the interaction” value is “decreasing interaction”.
